From patent publication US5874287

Target: G protein alpha subunit of human erythrocyte membranes (human) (UniProt P63092)

rCTXA1/T1 (CTXA1 truncated at Trp179) (enzyme)
SPECIFIC ACTIVITY FOR HEM G. PROTEIN (ADP-ribosyltransferase, relative): < 0.01
